One test concerns the target T1, rat GFRalpha3 (rat, UniProt O35118 29-370 (mouse entry)).
T1 construct: Expressed on transiently transfected HEK 293 EBNA cells; also called RetL3
T1 chain: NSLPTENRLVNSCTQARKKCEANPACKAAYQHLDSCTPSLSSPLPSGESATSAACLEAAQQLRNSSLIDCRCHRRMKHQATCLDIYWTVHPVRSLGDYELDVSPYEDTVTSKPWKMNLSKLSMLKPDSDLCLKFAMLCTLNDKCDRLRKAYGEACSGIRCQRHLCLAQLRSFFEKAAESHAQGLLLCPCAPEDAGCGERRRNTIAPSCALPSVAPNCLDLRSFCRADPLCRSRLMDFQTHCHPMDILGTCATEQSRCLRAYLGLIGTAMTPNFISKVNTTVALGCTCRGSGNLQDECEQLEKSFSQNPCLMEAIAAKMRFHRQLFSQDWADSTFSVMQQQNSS
Briefly: FACS.

The target in a further test is T2, rat GFRalpha1 (rat, UniProt Q62997 25-430).
T2 construct: whole, on cells; Expressed on transiently transfected HEK 293 EBNA cells
T2 sequence (looked up): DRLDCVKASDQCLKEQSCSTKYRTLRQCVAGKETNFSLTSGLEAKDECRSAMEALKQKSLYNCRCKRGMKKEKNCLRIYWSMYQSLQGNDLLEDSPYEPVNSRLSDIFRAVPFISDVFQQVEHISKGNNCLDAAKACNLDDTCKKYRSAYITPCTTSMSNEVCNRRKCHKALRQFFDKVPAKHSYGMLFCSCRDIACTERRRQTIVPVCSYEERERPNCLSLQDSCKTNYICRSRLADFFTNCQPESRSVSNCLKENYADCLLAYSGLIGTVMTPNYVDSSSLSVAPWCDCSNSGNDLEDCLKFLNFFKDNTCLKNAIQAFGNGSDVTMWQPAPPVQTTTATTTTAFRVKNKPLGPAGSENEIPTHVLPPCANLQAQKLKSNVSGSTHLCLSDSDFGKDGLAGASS
Briefly: FACS on transiently transfected HEK 293 EBNA cells. The method, then: (§1) HEK 293 EBNA cells were transiently transfected with an empty vector, a vector encoding rat GFRalpha1, a vector encoding rat GFRalpha2, or a vector encoding rat GFRalpha3. These cells were stained with 10 ug/ml of the anti-GFRalpha3 polyclonal antibody R11 (a rabbit polyclonal antibody generated by immunization with the peptide […] (SEQ ID NO:14), which contains a murine GFRalpha3 sequence and a heterologous GC sequence at its carboxy terminus) or with 10 ug/ml MOR02683. The vector-transfected cells shifted slightly above the unstained baseline because the HEK 293 EBNA cells endogenously expresses GFRalpha3 (FIGS. 2A and 2B). […] The lack of shift of the GFRalpha1-transfected cells and GFRalpha2-transfected cells as compared to vector-transfected cells indicated the specificity of MOR02683 for GFRalpha3 over its close family members (FIGS. 2A and 2B).

In another test the target is T3, rat GFRalpha2 (rat, UniProt O35977 22-444).
T3 construct: whole, on cells; Expressed on transiently transfected HEK 293 EBNA cells
T3 sequence: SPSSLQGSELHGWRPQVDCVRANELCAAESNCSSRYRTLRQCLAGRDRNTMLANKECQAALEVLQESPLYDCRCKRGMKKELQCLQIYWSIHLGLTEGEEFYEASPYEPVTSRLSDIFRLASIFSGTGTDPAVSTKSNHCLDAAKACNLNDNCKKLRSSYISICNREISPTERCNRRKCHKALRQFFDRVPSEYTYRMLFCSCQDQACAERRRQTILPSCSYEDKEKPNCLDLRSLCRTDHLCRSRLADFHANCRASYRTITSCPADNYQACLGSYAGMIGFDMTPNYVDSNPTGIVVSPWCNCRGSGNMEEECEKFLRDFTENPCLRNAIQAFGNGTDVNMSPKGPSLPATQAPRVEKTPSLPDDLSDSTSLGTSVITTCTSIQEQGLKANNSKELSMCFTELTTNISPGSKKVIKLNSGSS
Briefly: FACS on transiently transfected HEK 293 EBNA cells. The method, then: as §1

The target in the next test is murine GFRalpha3-Ig (murine). Briefly: inhibition of Neublastin-GFRalpha3-Ret ternary complex formation: MOR02683 preincubated with 1 ug/ml murine GFRalpha3-Ig, 50 ng/ml rat Neublastin and rat Ret-AP conditioned media; capture on an anti-human Fc plate; AP chemiluminescence. The method, then:
MOR02683 was preincubated with 1 ug/ml murine GFRalpha3-Ig ([…] […] […] […] […] […] […] […] […] […] […] […]; SEQ ID NO:19) and 50 ng/ml rat Neublastin (113 amino acid form; […] […] TACGCLG; SEQ ID NO:20) in rat Ret-alkaline phosphatase ([…] […] […] […] […] […] […] […] […] […] […] […] […] […] […] […] […] […] […] […] […] […]; SEQ ID NO:21) conditioned media for an hour before being added to the coated plate for another hour. The alkaline phosphatase (AP) was visualized with a chemiluminescent substrate and the plate was read on a luminometer.

The target of another test is T4, murine GFRalpha3 (murine, UniProt O35118 29-371).
T4 construct: also called murine GFRalpha3 on NB41A3-L3 cells
T4 sequence: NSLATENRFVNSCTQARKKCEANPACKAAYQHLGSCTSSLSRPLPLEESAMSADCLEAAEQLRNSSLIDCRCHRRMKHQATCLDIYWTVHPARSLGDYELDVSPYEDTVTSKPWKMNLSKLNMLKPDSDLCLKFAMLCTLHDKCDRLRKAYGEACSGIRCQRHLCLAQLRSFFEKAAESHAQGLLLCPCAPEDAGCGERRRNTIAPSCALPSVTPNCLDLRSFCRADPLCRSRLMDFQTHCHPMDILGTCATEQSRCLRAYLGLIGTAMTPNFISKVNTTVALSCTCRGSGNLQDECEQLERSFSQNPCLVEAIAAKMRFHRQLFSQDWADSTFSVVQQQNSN
Briefly: Neublastin competition binding on NB41A3-L3 cells (murine GFRalpha3 plus endogenous murine Ret): 0-10 uM rat Neublastin for 10 min at 4 C, unoccupied GFRalpha3 probed with 10 ug/ml biotinylated MOR02683, FACS with PE-Streptavidin, hyperbolic fit. The method, then:
NB41A3-L3 cells were incubated with different concentrations of rat Neublastin for 10 minutes at 4° C. During the incubation period, the binding reaction of Neublastin to GFRalpha3 and Ret on the cell surface reaches equilibrium. Cells were then quenched with a high concentration (10 ug/ml) of biotinylated MOR02683 for 2 minutes. MOR02683 can only bind to GFRalpha3 receptors that are not already occupied by Neublastin and thus acts as a probe for unoccupied GFRalpha3 receptors. During the short incubation time of the quenching reaction, no re-equilibration between Neublastin and MOR02683 binding occurs. The amount of MOR02683 bound to GFRalpha3 was then quantified via FACS analysis using PE-Streptavidin as a secondary reagent.
Neublastin competition binding was used to measure Neublastin binding affinities to receptors on the cell surface. NB41A3-L3 cells were incubated with 0-10 uM rat Neublastin for 10 minutes at 4° C. Cells were then quenched with 10 ug/ml biotinylated MOR02683 for 2 minutes. The amount of MOR02683 bound to GFRalpha3 was quantified by FACS using PE-Streptavidin as a secondary reagent. […] A Neublastin concentration-dependent reduction in the subsequent binding of MOR02683 was observed, but not with the control antibody MOR02682 (FIG. 8).

The results in this text go back to patent US20090202562A1 (Biogen, published 2009).

As a reminder, the EC50 is the concentration that produces a half-maximal response. High values mean lower potency in that assay, low ones higher potency in that assay. For orientation: Kd means the free concentration of one partner at which half of the binding sites on the other are occupied at equilibrium, for simple one-to-one binding.

B1: Fab fragment MOR02683 (Fab, V domains shown)
VH: QVQLVESGGGLVQPGGSLRLSCAASGFTFSNYTMHWVRQAPGKGLEWVSVISYDGSSTYYADSVKGRFTISRDNSKNTLYLQMNSLRAEDTAVYYCARIVRMDIWGQGTLVTVSS
VL: DIVLTQSPATLSLSPGERATLSCRASQSVNSHYLAWYQQKPGQAPRLLIYGASNRATGVPARFSGSGSGTDFTLTISSLEPEDFATYYCQQMDGFPFTFGQGTKVEIKR
notes: From the HuCAL GOLD Fab phage display library; also called anti-GFRalpha3 Fab fragment MOR02683
Consider B1, for which the binding result in the test with rat GFRalpha3 is listed as “binds”; in the test with rat GFRalpha1, “no binding (tested: 10 ug/ml)”; with rat GFRalpha2, “no binding (tested: 10 ug/ml)”. Also, the EC50 with murine GFRalpha3-Ig is about 0.25 µg/mL.

B2: rat Neublastin (113 amino acid form) (ligand)
chain: AGTRSSRARATDARGCRLRSQLVPVSALGLGHSSDELIRFRFCSGSCRRARSPHDLSLASLLDAGALRSPPGSRPISQPCCRPTRYEAVSFMDVNSTWRTVDHLSATACGCLG
On to B2, for which, in the test with murine GFRalpha3, the dissociation constant Kd was about 200 nM.
